Experimental data published in patent US20040181033A1 (Amgen, published 2004).

Legend:
[1] = molecular target: T1, recombinant mature myostatin (human, UniProt O14793 267-375); assay: cell-based or functional assay
T1 sequence (looked up): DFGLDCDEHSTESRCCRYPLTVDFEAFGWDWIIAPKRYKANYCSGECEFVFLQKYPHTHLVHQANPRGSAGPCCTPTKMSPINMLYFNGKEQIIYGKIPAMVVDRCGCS

[2] = molecular target: T1, recombinant mature myostatin; assay: cell-based or functional assay; remark: listed apart in the source

Row | Binder | IC50 (C2C12 pMARE-luc) [1] | IC50 (read off the curve) [2]
1 | recombinant human activin receptor IIB/Fc chimera (Fc fusion, UniProt Q13705 19-134, looked up, not shown: a dimerising Fc or GST) SGRGEAETRECIYYNANWELERTNQSGLERCEGEQDKRLHCYASWRNSSGTIELVKKGCWLDDFNCYDRQECVATEENPQVYFCCCEGNFCNERFTHLPEAGGPEVTYEPPPTAPT | ~83 nM | –
2 | QGHCTRWPWMCPPY [TN8-19 peptide] | – | ~20 µM
